Series [1] addresses T1, TspRK (ribokinase from Thermus sp. 2.9) (Thermus sp. 2.9, UniProt A0A0B0SD75).
T1 construct: gene rbsK; full-length, six-histidine tag (pET-23d+, NcoI/XhoI), codon-optimized synthetic gene; E. coli host
T1 sequence (A0A0B0SD75 1-301): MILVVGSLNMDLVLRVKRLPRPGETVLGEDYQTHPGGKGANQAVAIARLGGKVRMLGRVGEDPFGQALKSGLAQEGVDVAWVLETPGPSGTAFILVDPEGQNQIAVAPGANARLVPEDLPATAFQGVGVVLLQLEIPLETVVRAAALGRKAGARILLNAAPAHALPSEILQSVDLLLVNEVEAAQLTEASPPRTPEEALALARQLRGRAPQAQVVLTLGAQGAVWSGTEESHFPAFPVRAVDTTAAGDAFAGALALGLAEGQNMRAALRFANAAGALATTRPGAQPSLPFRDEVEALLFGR
Kind of series: HPLC of nucleotides (ATP consumption), nonlinear regression with substrate-inhibition equation. The format is biochemical. The note with it: 1 mM ATP, 5 mM MgCl2, 50 mM KCl, 10 mM KH2PO4, pH 8.0, 75 °C; substrate inhibition by binding of a second molecule; second site. The source says:
HPLC of nucleotides (ATP consumption), nonlinear regression with substrate-inhibition equation on TspRK (ribokinase from Thermus sp. 2.9)

Substrate in series [2]: Nc1ncnc2c1ncn2[C@@H]1O[C@H](COP(=O)(O)OP(=O)(O)OP(=O)(O)O)[C@@H](O)[C@H]1O
As to the kind of experiment: HPLC of nucleotides (ATP consumption), nonlinear regression, Michaelis-Menten. The note with it: 1 mM D-ribose, 5 mM MgCl2, 50 mM KCl, 10 mM KH2PO4, pH 8.0, 75 °C. Type of series: biochemical, Thermus sp. 2.9. The source says:
HPLC of nucleotides (ATP consumption), nonlinear regression, Michaelis-Menten on TspRK (ribokinase from Thermus sp. 2.9)

With `OC1OC[C@@H](O)[C@@H](O)[C@H]1O` (stereo partly drawn) [D-ribose], in series [1], the “Ki, μM” value is 1,700 ± 400 μM.

B1: TspRK (ribokinase from Thermus sp. 2.9) (Thermus sp. 2.9) (protein)
chain: MILVVGSLNMDLVLRVKRLPRPGETVLGEDYQTHPGGKGANQAVAIARLGGKVRMLGRVGEDPFGQALKSGLAQEGVDVAWVLETPGPSGTAFILVDPEGQNQIAVAPGANARLVPEDLPATAFQGVGVVLLQLEIPLETVVRAAALGRKAGARILLNAAPAHALPSEILQSVDLLLVNEVEAAQLTEASPPRTPEEALALARQLRGRAPQAQVVLTLGAQGAVWSGTEESHFPAFPVRAVDTTAAGDAFAGALALGLAEGQNMRAALRFANAAGALATTRPGAQPSLPFRDEVEALLFGR
notes: full-length, six-histidine tag (pET-23d+, NcoI/XhoI), codon-optimized synthetic gene; E. coli host
For the molecule B1, in series [2], the Km was 75 ± 11 µM, the Vmax was 13 µM/min/mg, the kcat stood at 6.8 ± 0.7 s⁻¹ and the kcat/Km was 91000 M⁻¹ s⁻¹.
